The values below are quoted from earlier work in PMC3631546.

This data set deals with His37 (UniProt position 37, IIGILHLILWI). The data set can be described thus: NMR. Particulars: membrane-bound tetrameric channel, no drug mentioned.

Consider “Influenza A M2 proton channel, transmembrane peptide (M2TM) (Influenza A virus (strain not stated))”, for which the pKa is reported as 8.2.
